{
  "source": "patent US20190271704",
  "key": {"[1]": {"target": "T1, NE peptide substrate with acetylated N-terminal CKKK-PEG4 linker and C-terminal heptafluorobutylamine reporter (peptide-PFC) (not fully specified)", "T1 chain": "CKKKXXXX"}, "[2]": {"target": "T2, NE nanosensor with heptafluorobutylamine reporter (peptide-PFC conjugated to a 40 kDa 8-arm PEG scaffold)", "T2 chain": "CKKKXXXX"}, "[3]": {"target": "T3, NE peptide substrate with acetylated N-terminal CKKK-PEG4 linker and C-terminal pentafluoropropylamine reporter (peptide-PFC) (not fully specified)", "T3 chain": "CKKKXXXX"}, "[4]": {"target": "T4, NE nanosensor with pentafluoropropylamine reporter (peptide-PFC conjugated to a 40 kDa 8-arm PEG scaffold)", "T4 chain": "CKKKXXXX"}},
  "data": [
    {"protein": "neutrophil elastase (NE) (protein) IVGGRRARPHAWPFMVSLQLRGGHFCGATLIAPNFVMSAAHCVANVNVRAVRVVLGAHNLSRREPTRQVFAVQRIFENGYDPVNLLNDIVILQLNGSATINANVQVAQLPAQGRRLGNGVQCLAMGWGLLGRNRGIASVLQELNVTVVTSLCRRSNVCTLVRGRQAGVCFGDSGSPLVCNGLIHGIASFVRGGCASGLYPDAFAPVAQFVNWIDSIIQ", "values": [
      {"measurement": "PFC release from the peptide substrate (real-time vapor analysis mass spectrometry)", "setting": "[1]", "result": "cleaved specifically by NE"},
      {"measurement": "kcat/Km (Michaelis-Menten kinetics of substrate cleavage)", "setting": "[2]", "result": "kcat/Km values were on the order of 10^5 M^-1s-^-1"},
      {"measurement": "PFC release from the peptide substrate (real-time vapor analysis mass spectrometry)", "setting": "[3]", "result": "cleaved specifically by NE"},
      {"measurement": "kcat/Km (Michaelis-Menten kinetics of substrate cleavage)", "setting": "[4]", "result": "kcat/Km values were on the order of 10^5 M^-1s-^-1"}
    ]}
  ]
}
